Measured values: paper PMC3172369 (Biochemistry, 2011)

B1: human Npm2-core domain (T15-E122) (domain or fragment, UniProt Q86SE8 15-122, looked up)
chain: TTVLWGCELSQERRTWTFRPQLEGKQSCRLLLHTICLGEKAKEEMHRVEILPPANQEDKKMQPVTIASLQASVLPMVSMVGVQLSPPVTFQLRAGSGPVFLSGQERYE
B2: Np-core labelled at Cys41 with a DyLight dye (domain or fragment, Xenopus laevis, UniProt P05221 11-124, looked up)
chain: LEKPVSLIWGCELNEQDKTFEFKVEDDEEKCEHQLALRTVCLGDKAKDEFNIVEIVTQEEGAEKSVPIATLKPSILPMATMVGIELTPPVTFRLKAGSGPLYISGQHVAMEEDY
modifications: DyLight 549-maleimide or DyLight 649-maleimide on Cys41

Columns and labels:
[1] = biological target: the molecule itself; assay: crystal structure
[2] = biological target: the molecule itself; assay: native gel or EMSA

Protein	stoichiometry N [1]	stoichiometry N [2]
B1	5	
B2		5
